The labels stand for the following.
B1: Mitogen-activated protein kinase 4 (Arabidopsis thaliana (Mouse-ear cress)), Q39024 (parent)
chain: MSAESCFGSSGDQSSSKGVATHGGSYVQYNVYGNLFEVSRKYVPPLRPIGRGAYGIVCAATNSETGEEVAIKKIGNAFDNIIDAKRTLREIKLLKHMDHENVIAVKDIIKPPQRENFNDVYIVYELMDTDLHQIIRSNQPLTDDHCRFFLYQLLRGLKYVHSANVLHRDLKPSNLLLNANCDLKLGDFGLARTKSETDFMTEYVVTRWYRAPELLLNCSEYTAAIDIWSVGCILGETMTREPLFPGKDYVHQLRLITELIGSPDDSSLGFLRSDNARRYVRQLPQYPRQNFAARFPNMSAGAVDLLEKMLVFDPSRRITVDEALCHPYLAPLHDINEEPVCVRPFNFDFEQPTLTEENIKELIYRETVKFNPQDSV
partner: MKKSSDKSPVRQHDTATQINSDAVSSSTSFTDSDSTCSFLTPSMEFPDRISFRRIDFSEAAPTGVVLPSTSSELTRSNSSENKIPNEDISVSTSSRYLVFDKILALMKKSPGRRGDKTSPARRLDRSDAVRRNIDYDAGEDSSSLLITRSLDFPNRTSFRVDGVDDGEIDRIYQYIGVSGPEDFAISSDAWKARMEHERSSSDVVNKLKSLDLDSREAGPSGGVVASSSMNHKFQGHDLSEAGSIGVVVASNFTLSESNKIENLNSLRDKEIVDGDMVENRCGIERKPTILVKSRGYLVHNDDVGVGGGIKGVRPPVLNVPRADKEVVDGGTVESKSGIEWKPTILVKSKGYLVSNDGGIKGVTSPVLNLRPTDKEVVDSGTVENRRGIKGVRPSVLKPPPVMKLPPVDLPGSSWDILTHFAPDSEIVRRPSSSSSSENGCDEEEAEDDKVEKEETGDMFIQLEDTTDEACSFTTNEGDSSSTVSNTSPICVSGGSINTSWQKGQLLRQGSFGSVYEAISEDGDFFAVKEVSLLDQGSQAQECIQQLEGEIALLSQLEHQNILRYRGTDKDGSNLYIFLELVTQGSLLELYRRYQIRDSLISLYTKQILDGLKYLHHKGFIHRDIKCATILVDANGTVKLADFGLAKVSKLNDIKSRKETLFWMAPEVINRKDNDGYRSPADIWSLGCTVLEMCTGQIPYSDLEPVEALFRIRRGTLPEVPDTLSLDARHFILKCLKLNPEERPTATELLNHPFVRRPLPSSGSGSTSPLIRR

The values below come from IntAct's records for PubMed 22643122.

In this test the parent is B1. The settings on record: with mp3k2_arath MEKK2, O81472.
For the variant MSAESCFGSSGDQSSSKGVATHGGSYVQYNVYGNLFEVSRKYVPPLRPIGRGAYGIVCAATNSETGEEVAIKKIGNAFDNIIDAKRTLREIKLLKHMDHENVIAVKDIIKPPQRENFNDVYIVYELMDTDLHQIIRSNQPLTDDHCRFFLYQLLRGLKYVHSANVLHRDLKPSNLLLNANCDLKLEDFGLARTKSETDFMTEYVVTRWYRAPELLLNCSEYTAAIDIWSVGCILGETMTREPLFPGKDYVHQLRLITELIGSPDDSSLGFLRSDNARRYVRQLPQYPRQNFAARFPNMSAGAVDLLEKMLVFDPSRRITVDEALCHPYLAPLHDINEEPVCVRPFNFDFEQPTLTEENIKELIYRETVKFNPQDSV [G186E], the “effect of a mutation on the interaction” value was “disrupting interaction”.
